In the nanobody polyreactivity screen of Harvey et al. (2022):

Experiment: yeast display, Sf9 membrane polyspecificity reagent, FACS + sequencing; frameworks hold sequencing errors
Summary of the method: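 Nanobodies from a synthetic yeast display library (Saccharomyces cerevisiae BJ5465), induced 36–48 hours with galactose, were stained 1 hour at 4 °C with 10% biotinylated, detergent-solubilized Sf9 membrane reagent, enriched on streptavidin microbeads, then FACS-sorted. Anti-HA (expression) and streptavidin (reagent binding) fluorescence set low and high (top ~1%) gates. Polyreactivity labels come from the gate of origin. Genes were colony-PCR amplified, MiSeq 2 × 250 sequenced and filtered by CDR length.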

Row | Sequence | polyreactivity (PSR sort gate)
1 | QVQLVESGGGLVQAGGSLRLSCAASGSTFRIYAMGWYRQAPGKERELVARISWNGGRTYYADSVKGRFTISRDNAKNTVYLQMNSLKPEDTAVYYCNARSQGWYYFPDNDYWGQGTQVTVSS | high polyreactivity
2 | QVQLVESGGGLVQAGGSLSLSCAASGYIFLVYAMGWYRQAPGKERELVASITRGGGTTYYADSVKGRFTISRDNAKNTVYLLMNSLKREDTAVYYCAADLYSRGHRWYGYWGQGTQVTVSS | high polyreactivity
3 | QVQIVESGGGLVQAGGSLRLSCAASGFTFRGYAMGCYRQAPAKERELVAAISRSGGSTNYADSVKGRFTISRDNAKNTVYLKMNSMKPEDTAVYYCAAGWNPYDYWGQGTQVTVSS | high polyreactivity
4 | QVQLVESGGGLVQAGGSLRLSCAASGSTFYPYAMGWYRQAPGKERELVAAITYSGGSTYYADSVKGRFTISRDNAKNTVYLQMNSLKPDDTAVYYCATPYFSTPRVRGFDYWGQGTQVTVSS | low polyreactivity
5 | QVQLVESGGGLVQAGGSLRLSCAAYGLTFYGYGMGWYRQAPGKERELVASITSGGNTYYADSVKGRFTISRDNAKNTVYLQMNSLKPEDTAVYYCAVTAIALYYSSGYYWGQGTQVTVSS | low polyreactivity
6 | QVQIVESGGGLVQAGGSLRLSCAPSGRIFRKYAMGWYRQAPGKERELVAAISVGGGSTRYADSVKGRFTISRDNAKNTVYLQMNSLKPEDTAVYYCAVKWFSGGYDYWGQGTQVNVSS | low polyreactivity
7 | QVQLVESVGGLFQAGGSLRLSCAASGSTFDYYSMVWYRQAPGKERELVAGIDSAGSTNYADSVKGRFTISRDNAKNTVYLQMNSLKTGRYRGLYCNVGKTITTYAFPTFDYWGQGTQVTVSS | low polyreactivity
8 | QVQLVESGGGLVQAGGSLRLSCAASGRTFVTNTMGWYRQAPGKEREFVAAITWNGGGTYYADSVKGRFTISRDNAKNTVYLQMNSLKPEDTAVYYCAARGRTDSYWRFYHWGQGTQVTVSS | high polyreactivity
9 | QVQLVESGGGLVQAGGSLRLSCAASGRIFSYNAMGWYRQAPGKERELVAAITFSGGGTYYADSVKGRFTISRDNAKNTVYLQMNSLKPEDTAVYYCAADVPPKYRHRYNLYDYWGQGTQVTVSS | low polyreactivity
10 | QVQLVESGGGLVQAGGSLRLSCAACGFTFQYYAMGWYRQAPGKVRELVATITTSGGNTYYADSVKGRFTISRDNAKNTVYLQMNSLKPEDTAVYYCAARSYRASSRGYVYWGQGTQVTVSS | high polyreactivity
11 | QVQLVESGGGLVQAGGSLRLSCAASGRTFWSNAMGWYIQAPGKERELVAVIYTTTGNTYYADSVKGRFSISRDYAKNTVYLQMNSLKPEDTAVYYCNTRSGAFFLSKPYDYWGQGTQVTVSW | low polyreactivity
12 | QVQLVETGGGLVQAGGSLRLSCASSGRTCVDNTMGWYRQEPGKESELVATITSGDSTNYEESVKGRFTISRDNAKYTVYLQMNSLKPEDTAVYYCAAVTNWYYYYTHRMEYWGQGTQVTVSS | low polyreactivity
13 | QVQLVESGGGLVQAGGSLRLSCAASGRIYRENAMGWYRQAPGKEREFVAVISISDASTYYADSVKGRFTISRDNAKNTVYLQMNSLKPVDTAVYYCAADLTDFLYVSSDFWGQGTQVTVSS | low polyreactivity
14 | QVQLVESGGGLVQAGGSLRLSCAASGRTFTGNAMGWYRQAPGKERELVAAISQRGGRTNYADSVKGRFTISRDNAKNTVYLQMHSLKPEDTAVYYCAADQSYPKRLPSFEYWGQGTQVTVSS | low polyreactivity
15 | QVQLVESGGGLVQAGGSLRLSCAASGRILSVYAMGWYRQAPGKERELDAGISKRGGRTYYADSVKGRFTISRDNAKNTVYLQMKSLTPEDTAVYYCAADYSSYWGRDYWGQGTQVTVSS | high polyreactivity
16 | QVQLVESGGGLVQAGGSLRLSCAASGFTFPVYAMGWYRQAPGKEREFVAAITYIGGSTYADSVKGRFTISRDNAKNTVYLQMNSLKPEDTAVYYCNADDARLFDYWGQGTQVTVSS | low polyreactivity
17 | QVQLVESGGGLVQAGGSLRLSCAASGSNWSYAMGWYSQAPGKESVLVATISRRGGSTYYADSVKGRFTISRDNAKNTVYLQMNSLKPEDTAVYYCAAAESASSFRFDYWGQGTQETVSS | high polyreactivity
